According to the DeepSol protein solubility set:

Test: soluble on expression in E. coli; label from the status in PepcDB or PDB records

Sequence: MSLDRKGNPVVRWDNNWLGSNEPCEDRWATDLVRRDGAAGGAVGKAVNFWTRWYRGDSIPSESAPAEEDEAARGKHDLMLFSIMDGHAGDATSRLLQKSLHPTISMALAGLQRGNVPPRHNVWERWAGYLNPWYWLGTDTVWTPENVSKTIQNAFVQLDDNICQTPLKLLPTLSSPSTSSPTPRETLVALAQPAAAGACAISTLVDSENDDLYVAVTGDCRAVAGWEGEDGKWRCDVLSEDQMGDNPKEIERMRSEHPASERDTVIRNGRVQGGLQPTRAFGDAVYKWTNAQAAQIADAFRAQGERPRPGRPWNYTPPYVTARPEVTYRKLNAHTGEKLRFIVLATDGLWDRITSEESTLLLASYLSHPSHAPLPKSALPRREGHHHHHH
- soluble on expression in E. coli: soluble

Sequence: MSLKYKRIVFKVGTSSITHSDGSLSRGKIQTITCQLAALHHAGHELVLVSSGAVAAGFGALGFKKRPVKIADKQASAAVGQGLLMEEYTANLSSDGIVSAQILLSRADFADKRRYQNAGGALSVLLQRRAVPIINENDTVSVEELKIGDNDTLSAQVAAMIQADLLVLLTDIDGLYTGNPNSNPDAVRLDKIEHINHEIIEMAGGSGSANGTGGMLTKIKAATIAAESGVPVYICSSLKPDALAEAAEHQADGSFFVPRAKGLRTQKQWLAFYSESRGSVYVDEGAEHALSEQGKSLLMSGIAGIEGHFSRMDTVTVYSKATKQPLGKGRVLFGSAAAEDLLKSRKAKGVFIHRDDWISITPEIRLLLTEFEGHHHHHH
- soluble on expression in E. coli: soluble

Sequence: MGSDKIHHHHHHMKHYRQVVSPQLRQQALDWILAAAQRPDPALEPEFDIADDERREAKKVRNLHRHDPLFWDDWFARSGLDALVRDHLRKPRLLRHAAFIKRHADESYIPLHQDIALWEKRYESAQTFWVALTPSRNDNGGMFYYPDDRTIFPHEFDLAYPMFKCIDLQANGISREQLVDAELDAGDVLVWPARTAHGSHNNRSGQLRIGMPIVFVEDDEFHQLNREDSMKTWIASNLKSVFPDEAITEDNLDHYLPQLCDYSLKMVTFLARFSRQFGHAPKIHDFIREPRLATLSASDAGARR
- soluble on expression in E. coli: not soluble

Sequence: MGSDKIHHHHHHMKFSLGPSLFFWPKNEVVDFYQQAKESSADVIYLGETVCSKRRELRAKDWLGLAQDVAQDTNKQVVVSTMTLLESPAEIQVLKRLCDNGEFLVEANDLSAVQIMHELKMPFVAGPAINCYNLSTLKVLLKQGMTRWLMPVELSGDWLKILLEQATEAGIRQQFECEVFSWGYLPLAYSARCFTARSEDKAKDDCEYCCIKYPEGRRMNSREGERVFVLNGIQTLSGYQYNLINEMPALDAMGVDIARISADSTEAFTQLDNFREQLVNPTRKELDGVTECNGFWHKIAGMSVA
- soluble on expression in E. coli: not soluble

Sequence: MAQLFFRYGAMNSGKTIEILKVAHNYEEQDKSVIILTSGLDNRDGVGYVASRIGLKREATPVFDDTNIFEIVKQTNPDAACVLIDEAQFLKKHHVLELADIVDELKIPVMTFGLKNDFRNELFEGSKYLLLYADKIEEMKTICWFCRKKAIMNLRFHDGQPVYEGEQVQIGGNEAYYPVCRHHYFYPPKLTKLEHHHHHH
- soluble on expression in E. coli: soluble

Sequence: MAHLQYRDGDWYLHASMRKVEAGEGTSESESKHRTVLGVDLGVNNLAVASTGRFWSAGEFNHWRREYEKRRALLQQCGSRHAHENIESVGQKEYGRFEIYLHTVANELIEEAIENDCSHIVFEDLTHIRENIPEATWQHVWAFRRLYEYVEYKAKENGVEAVQVDPRNTSKRCLTCGFTHDDNRNGESFKCQQCGYENHADYNASKNIGLQYLRRRQNADDGGAPVDVRLNRGTLNVSGEYAHPASTEALEHHHHHH
- soluble on expression in E. coli: not soluble

Sequence: MSLKRVSEMKFCFCGEKKDSRVKPLRVAIIGAGPAGLSAACSLACDGFDVHVYDKMPEPGGMVAFGIPEWRIPISKVRQAVKEIEELGVVFHMRTKVVYDSPKELGDEFAERFVSLEKLMKEYDAILIATGAWRPRILDIPGKELKGVENALQLLLRINLARIGYLPQTKMPSFEGKRVVVIGAGYTAVDVAKEAKLLGAKSVTIAYRRSLQDSYAKNEFKKLIKEGVKFLEYVTPVRIFGDENVREVEFAKTKVVRGSVITTEEKRTIPADVIIFAIGQIPTNPIKEVLCSNEDILKNAGIFFAGDVISPRNIGTAIREGRKVAEEIKAWLTEHAFLNIRLSYPVSLRDISKSATEGHHHHHH
- soluble on expression in E. coli: soluble

Sequence: MAELWEIVSFLDEYLKISEYPDKSSNGLQVEGKEEVNTIAFAVDACLDTIVKARAFNADMLIVHHGLIWGGVKYVKGLFAKRVKELLKSNMNLYAAHLPLDAHPEVGNNAQLLKLLGLEPKEKFGEYHGVMIGYIGEFEEEKPLPLIAQMLAEKLPVDYVKSYEFGVQEIKRVGVVSGGGGFAVEEASEKGVDLFITGEFTHEDYRAAEDLRLSVIAAGHYATETLGVKALMPILREKFGVKTIFIDSPTGLLEHHHHHH
- soluble on expression in E. coli: soluble

Sequence: SLSHRTDGSLLFPLSLVHINDIHAHWEEIDTASVTCDPKRDGAAEQCLGGYARTVTIVRQLLQERPNPVYLNIGDNFQGTLWYNIHRWNATAFFLNLLPADAVTVGNHEFDDGIAGVVPFLEAIQSPVLLVNVDNSKEPSFSKFRPSMVLERAGRKIGLIGVILRTTYNMADTGALVFEDEAETVRLEADRLAAEGVDIVVVLSHCGLDVDHIIAANAGPNVDIIVGGHSHSFLYSGQNDKIPMTPASEYPTVVNQPDGHRVLIVQASAYTKLVGDIVLYFDDQGIVQHWEGNPIYLSNDIVPDAEVLEAIAPWKVAIDAVGERTIGATAVDLLKPPCNFGECVLGNLIADSMVEAFVPMAEEGSWTYASIAAIAVGRIRQSLVPGDISFKHLIEVLPFENKLVCLELRGFQLVGLLEHGAELSWDEHRFNAKNLMHVSGLRVVYNVTNPIGHRVLSVEALCQDCSMPSYAPVEMFKMYRVVTVSYLAEGGDGFEIFPRYGRNRVVAPMDDVQAFEEYVKPRSPVAPVLEERIQILN
- soluble on expression in E. coli: not soluble

Sequence: EEPSSNEIHIGSLVIFPDAYVVSKRDETIELTHREFELLHYLAKHIGQVMTREHLLQTVWGYDYFGDVRTVDVTVRRLREKIEDNPSHPNWIVTRRGVGYYLRNPEQD
- soluble on expression in E. coli: soluble

Sequence: MPLRPQRPCRAQGCRSLHRNANGYCDGHADLAAEQAKAWATRKGSGRGGRPWRRKRERILKRDQYLCRCDDCAQLGRIREAHEVDHIVALAHGGTDDDDNLRAINRDCHKAKTQRESKTIKKLEHHHHHH
- soluble on expression in E. coli: not soluble

Sequence: MANPTVIKLQDGNVMPQLGLGVWQASNEEVITAIQKALEVGYRSIDTAAAYKNEEGVGKALKNASVNREELFITTKLWNDDHKRPREALLDSLKKLQLDYIDLYLMHWPVPAIDHYVEAWKGMIELQKEGLIKSIGVCNFQIHHLQRLIDETGVTPVINQIELHPLMQQRQLHAWNATHKIQTESWSPLAQGGKGVFDQKVIRDLADKYGKTPAQIVIRWHLDSGLVVIPKSVTPSRIAENFDVWDFRLDKDELGEIAKLDQGKRLGPDPDQFGG
- soluble on expression in E. coli: soluble

Sequence: MSLTDKMQSLALAPVGNLDSYIRAANAWPMLSADEERALAEKLHYHGDLEAAKTLILSHLRFVVHIARNYAGYGLPQADLIQEGNIGLMKAVRRFNPEVGVRLVSFAVHWIKAEIHEYVLRNWRIVKVATTKAQRKLFFNLRKTKQRLGWFNQDEVEMVARELGVTSKDVREMESRMAAQDMTFDLSSDDDSDSQPMAPVLYLQDKSSNFADGIEDDNWEEQAANRLTDAMHGLDERSQDIIRARWLDEDNKSTLQELADRYGVSAERVRQLEKNAMKKLRAAIEAEGHHHHHH
- soluble on expression in E. coli: soluble

Sequence: RSLVSVHNEWDPLEEVIVGTAVGARVPTADRSVFAVEYAGDYESQEQIPSGAYPDRVLKETEEELHVLAAELTKLGVTVRRPGPRDHSALIKTPDWETDGFHDYCPRDGLLSVGQTIIETPMALRSRFLESLAYKDLLLEYFASGSRWLSAPKPRLTDDSYAPQAPAGERLTDEEPVFDAANVLRFGTDLLYLVSDSGNELGAKWLQSAVGDTYTVHPCRKLYASTHVDSTIVPLRPGLVLTNPSRVNDENMPDFLRSWENITCPELVDIGFTGDKPHCSVWIGMNLLVVRPDLAVVDRRQTALIRLLEKHGMNVLPLQLTHSRTLGGGFHCATLDVRRTGALETYQF
- soluble on expression in E. coli: soluble

Sequence: SDLWVQKMKTYFNRIDFDKDGAITRMDFESMAERFAKESEMKAEHAKVLMDSLTGVWDNFLTAVAGGKGIDETTFINSMKEMVKNPEAKSVVEGPLPLFFRAVDTNEDNNISRDEYGIFFGMLGLDKTMAPASFDAIDTNNDGLLSLEEFVIAGSDFFMNDGDSTNKVFWGPLV
- soluble on expression in E. coli: soluble

Sequence: MIGNLKLKRFEEVNLVLSGGAAKGIAHIGVLKALEELGIKVKRLSGVSAGAIVSVFYASGYTPDEMLKLLKEVNWLKLFKFKTPKMGLMGWEKAAEFLEKELGVKRLEDLNIPTYLCSADLYTGKALYFGRGDLIPVLLGSCSIPGIFEPVEYENFLLVDGGIVNNLPVEPLEKFKEPIIGVDVLPITQERKIKNILHILIRSFFLAVRSNSEKRKEFCNVVIEPPLEEFSPLDVNKADEIFLRGYESTLRIMRNFVKHLEHHHHHH
- soluble on expression in E. coli: not soluble

Sequence: MGHHHHHHSHMRRAELAGLKTMAWVPAESAVEELMPRLLPVEPCDLTEGFDPSVPPRTPQEYLRRVQIEAAQCPDVVVAQIDPKKLKRKQSVNISLSGCQPAPEGYSPTLQWQQQQVAQFSTVRQNVNKHRSHWKSQQLDSNVTMPKSEDEEGWKKFCLGEKLCADGAVGPATNESPGIDYVQIGFPPLLSIVSRMNQATVTSVLEYLSNWFGERDFTPELGRWLYALLACLEKPLLPEAHSLIRQLARRCSEVRLLVDSKDDERVPALNLLICLVSRYFDQRDLADEPS
- soluble on expression in E. coli: not soluble

Sequence: MDPARECEGKGACELKSNKRFADKIMPHLLNLYGSSAKANDFDMYAPNASFEDPLTHAQGVKQIKSAFYSLPKVFGESKIVEYHIQESETSPGKKEILIDNKQHYKIMGRNIDMISLIKLYVEDGKIVRHEDWWDKKPLRNRDTVSFPLVGRVMEMGRRGLMLATHAMMGFGKDPDSQ
- soluble on expression in E. coli: soluble

Sequence: SREIDYTAYPWFAGNMERQQTDNLLKSHASGTYLIRERPAEAERFAISIKFNDEVKHIKVVEKDNWIHITEAKKFDSLLELVEYYQCHSLKESFKQLDTTLKYPY
- soluble on expression in E. coli: soluble

Sequence: MAHHHHHHMMDDQSSTSGGPQEGRDADHRQNHGNVLFVGNLPFQTPWQHVKDHFRKAGKVRYTDLIADRMGRPKGSALVTMVTAEGAQRAIRMYNETDFEGRRLIVRLFDDGPRPPIVQRGMMPQYDRQTQQQQPQQQSQRFRGYTGASSGGSNYNNTTNFGRRADYMGRGGYTMEEDLNATSLNDMGDSVPKPRSQQVNEFGRKLFVSNLPFDCTSSALRETFQQVGNVERAEVILGRNGKSRGMGIVVMRTEKETRLAIEEFDGIEMANRAMSVRLDNKTTA
- soluble on expression in E. coli: soluble

Sequence: MSLVGYSAVSQPSPASFLLGPTLPPAPSIAFRLWRPYSMTARITSVEALPYRLPLTSKLAWGAHSALSAAEHVLVRVTLSDGSVGVAEATPRPTIYGETPGSVTAILQHLEPALLGLDIADEAALNRVRGSVAGNHTARGALDMALWEARAASRGQSLFDTLLGPHERVRVSFILGIAPPAEMLAEAERVVAAGVRCLKVKVGRHAAQDLQVIAELRRRYGDDVQLYADSNETLTLEQAPDVLAAMREAGLMYVEEPLPARDLRARAALHAAGVLPIVADDSCFTPADLERELDFDTFDVLNVKTARNGFTDGLQMLRRAAEHGKRGMVGSQASTGLGTLHAALLSTQAEVTEPCELSFVLKLGDDLLNRPIEFQDGWLNVPELREHRLDEDKLARYRIEGHHHHHH
- soluble on expression in E. coli: not soluble

Sequence: MGSDKIHHHHHHMVLNINSFYKNCRGEFMRAVFIYHKNNQRMEKFYKNLLNEPDFCRICDDCYNCRGNWTFKNNVKNIVIEEVYEEFVDNPYDYLPELPEGDICIAQLHEDLLYELPLLLKEKGYKALIVPSETPHDLSLALRRDLKRVCSNYNIEFENPKPFCSLEKKEGNEYINKFIDYFKIGKPELEIEVENGLIKDVKVKISAPCGETYYIAKRLKGKAIDDLKEEIANAHHNYPCLASMEMDKELGDTILHKAGYIAFEVVEKALKK
- soluble on expression in E. coli: not soluble
